The chains are these.
B1: I283T-P284D-N287P-S322T-N388M-C430N-L432F-L434W-S436N-H461T-dG462-A463T (protein)
chain: MFLKSLREQINLLKRQGDLRIINRPVDSYLEAAAIIRRSTETKAPVPLMTNIKGYPGCSIVGGLAALSSNPEYPLSRVAMSLGLSTTASAQSIVQYLIDGLKKTPYLPVEIDSNSAPCKQNILRGEDASLAHFPIPQVHQHDGNRYVNTWGVFIVESPDGQWCNWSIQRVQYLNDRQMIALVFPSQHISDIWEEWVKIGKPMPYALVQGCEPIVPYIAGLPLLERNVNEAEYIGALYGKGIEVVKCETHDLRVPASSEVVIEGYFAITREGVEGPFGEFAGYTDNEPSLQPILSITAISWQDDPIWPVVAEGKPVDEYHTCTGIGDAAAIQNVLLTANLPVSFVWVPLYSACHLMIVSINRHWRQTHPDLTSEQLTKKVGDVIHQTRMSIKLPKIVVLDDDVDPADTESLLWALATRIHPERKRYFYESNIFPWLNCYSEEERHNRKGKRVIIDALLPENTGTISSFDYAYPDDIKQRVLMHWETDFSHD
B2: I283T-P284D-N287P-S322T-N388M-E421V-C430N-L432F-L434W-S436N-H461V-dG462-A463T (protein)
chain: MFLKSLREQINLLKRQGDLRIINRPVDSYLEAAAIIRRSTETKAPVPLMTNIKGYPGCSIVGGLAALSSNPEYPLSRVAMSLGLSTTASAQSIVQYLIDGLKKTPYLPVEIDSNSAPCKQNILRGEDASLAHFPIPQVHQHDGNRYVNTWGVFIVESPDGQWCNWSIQRVQYLNDRQMIALVFPSQHISDIWEEWVKIGKPMPYALVQGCEPIVPYIAGLPLLERNVNEAEYIGALYGKGIEVVKCETHDLRVPASSEVVIEGYFAITREGVEGPFGEFAGYTDNEPSLQPILSITAISWQDDPIWPVVAEGKPVDEYHTCTGIGDAAAIQNVLLTANLPVSFVWVPLYSACHLMIVSINRHWRQTHPDLTSEQLTKKVGDVIHQTRMSIKLPKIVVLDDDVDPADTESLLWALATRIHPVRKRYFYESNIFPWLNCYSEEERHNRKGKRVIIDALLPENVGTISSFDYAYPDDIKQRVLMHWETDFSHD
B3: N285M-N388M-K394R-C430N-L432F-L434W-S436N (protein)
chain: MFLKSLREQINLLKRQGDLRIINRPVDSYLEAAAIIRRSTETKAPVPLMTNIKGYPGCSIVGGLAALSSNPEYPLSRVAMSLGLSTTASAQSIVQYLIDGLKKTPYLPVEIDSNSAPCKQNILRGEDASLAHFPIPQVHQHDGNRYVNTWGVFIVESPDGQWCNWSIQRVQYLNDRQMIALVFPSQHISDIWEEWVKIGKPMPYALVQGCEPIVPYIAGLPLLERNVNEAEYIGALYGKGIEVVKCETHDLRVPASSEVVIEGYFAITREGVEGPFGEFAGYIPMENSLQPILSITAISWQDDPIWPVVAEGKPVDEYHTCSGIGDAAAIQNVLLTANLPVSFVWVPLYSACHLMIVSINRHWRQTHPDLTSEQLTKKVGDVIHQTRMSIKLPRIVVLDDDVDPADTESLLWALATRIHPERKRYFYESNIFPWLNCYSEEERHNRKGKRVIIDALLPENHGAISSFDYAYPDDIKQRVLMHWETDFSHD
B4: I283T-P284D-N287P-S322T-N388M-E421V-R422F-C430N-L432F-L434W-S436N-H461T-dG462-A463T (protein)
chain: MFLKSLREQINLLKRQGDLRIINRPVDSYLEAAAIIRRSTETKAPVPLMTNIKGYPGCSIVGGLAALSSNPEYPLSRVAMSLGLSTTASAQSIVQYLIDGLKKTPYLPVEIDSNSAPCKQNILRGEDASLAHFPIPQVHQHDGNRYVNTWGVFIVESPDGQWCNWSIQRVQYLNDRQMIALVFPSQHISDIWEEWVKIGKPMPYALVQGCEPIVPYIAGLPLLERNVNEAEYIGALYGKGIEVVKCETHDLRVPASSEVVIEGYFAITREGVEGPFGEFAGYTDNEPSLQPILSITAISWQDDPIWPVVAEGKPVDEYHTCTGIGDAAAIQNVLLTANLPVSFVWVPLYSACHLMIVSINRHWRQTHPDLTSEQLTKKVGDVIHQTRMSIKLPKIVVLDDDVDPADTESLLWALATRIHPVFKRYFYESNIFPWLNCYSEEERHNRKGKRVIIDALLPENTGTISSFDYAYPDDIKQRVLMHWETDFSHD
B5: I283T-P284D-N287P-S322T-N388M-E421V-R422F-C430N-L432F-L434W-S436N-dG462-A463T (protein)
chain: MFLKSLREQINLLKRQGDLRIINRPVDSYLEAAAIIRRSTETKAPVPLMTNIKGYPGCSIVGGLAALSSNPEYPLSRVAMSLGLSTTASAQSIVQYLIDGLKKTPYLPVEIDSNSAPCKQNILRGEDASLAHFPIPQVHQHDGNRYVNTWGVFIVESPDGQWCNWSIQRVQYLNDRQMIALVFPSQHISDIWEEWVKIGKPMPYALVQGCEPIVPYIAGLPLLERNVNEAEYIGALYGKGIEVVKCETHDLRVPASSEVVIEGYFAITREGVEGPFGEFAGYTDNEPSLQPILSITAISWQDDPIWPVVAEGKPVDEYHTCTGIGDAAAIQNVLLTANLPVSFVWVPLYSACHLMIVSINRHWRQTHPDLTSEQLTKKVGDVIHQTRMSIKLPKIVVLDDDVDPADTESLLWALATRIHPVFKRYFYESNIFPWLNCYSEEERHNRKGKRVIIDALLPENHGTISSFDYAYPDDIKQRVLMHWETDFSHD
B6: I283T-P284D-N287P-S322T-N388M-E421V-R422F-C430N-L432F-L434W-S436N-H461V-dG462 (protein)
chain: MFLKSLREQINLLKRQGDLRIINRPVDSYLEAAAIIRRSTETKAPVPLMTNIKGYPGCSIVGGLAALSSNPEYPLSRVAMSLGLSTTASAQSIVQYLIDGLKKTPYLPVEIDSNSAPCKQNILRGEDASLAHFPIPQVHQHDGNRYVNTWGVFIVESPDGQWCNWSIQRVQYLNDRQMIALVFPSQHISDIWEEWVKIGKPMPYALVQGCEPIVPYIAGLPLLERNVNEAEYIGALYGKGIEVVKCETHDLRVPASSEVVIEGYFAITREGVEGPFGEFAGYTDNEPSLQPILSITAISWQDDPIWPVVAEGKPVDEYHTCTGIGDAAAIQNVLLTANLPVSFVWVPLYSACHLMIVSINRHWRQTHPDLTSEQLTKKVGDVIHQTRMSIKLPKIVVLDDDVDPADTESLLWALATRIHPVFKRYFYESNIFPWLNCYSEEERHNRKGKRVIIDALLPENVGAISSFDYAYPDDIKQRVLMHWETDFSHD
B7: I283T-P284D-N287P-S322T-N388M-R422F-C430N-L432F-L434W-S436N-H461T-dG462-A463T (protein)
chain: MFLKSLREQINLLKRQGDLRIINRPVDSYLEAAAIIRRSTETKAPVPLMTNIKGYPGCSIVGGLAALSSNPEYPLSRVAMSLGLSTTASAQSIVQYLIDGLKKTPYLPVEIDSNSAPCKQNILRGEDASLAHFPIPQVHQHDGNRYVNTWGVFIVESPDGQWCNWSIQRVQYLNDRQMIALVFPSQHISDIWEEWVKIGKPMPYALVQGCEPIVPYIAGLPLLERNVNEAEYIGALYGKGIEVVKCETHDLRVPASSEVVIEGYFAITREGVEGPFGEFAGYTDNEPSLQPILSITAISWQDDPIWPVVAEGKPVDEYHTCTGIGDAAAIQNVLLTANLPVSFVWVPLYSACHLMIVSINRHWRQTHPDLTSEQLTKKVGDVIHQTRMSIKLPKIVVLDDDVDPADTESLLWALATRIHPEFKRYFYESNIFPWLNCYSEEERHNRKGKRVIIDALLPENTGTISSFDYAYPDDIKQRVLMHWETDFSHD
B8: I283T-P284D-N287P-S322T-N388M-E421V-C430N-L432F-L434W-S436N-H461T-dG462-A463T (protein)
chain: MFLKSLREQINLLKRQGDLRIINRPVDSYLEAAAIIRRSTETKAPVPLMTNIKGYPGCSIVGGLAALSSNPEYPLSRVAMSLGLSTTASAQSIVQYLIDGLKKTPYLPVEIDSNSAPCKQNILRGEDASLAHFPIPQVHQHDGNRYVNTWGVFIVESPDGQWCNWSIQRVQYLNDRQMIALVFPSQHISDIWEEWVKIGKPMPYALVQGCEPIVPYIAGLPLLERNVNEAEYIGALYGKGIEVVKCETHDLRVPASSEVVIEGYFAITREGVEGPFGEFAGYTDNEPSLQPILSITAISWQDDPIWPVVAEGKPVDEYHTCTGIGDAAAIQNVLLTANLPVSFVWVPLYSACHLMIVSINRHWRQTHPDLTSEQLTKKVGDVIHQTRMSIKLPKIVVLDDDVDPADTESLLWALATRIHPVRKRYFYESNIFPWLNCYSEEERHNRKGKRVIIDALLPENTGTISSFDYAYPDDIKQRVLMHWETDFSHD
B9: I283T-P284D-N287P-S322T-N388M-R422F-C430N-L432F-L434W-S436N-H461V-dG462-A463T (protein)
chain: MFLKSLREQINLLKRQGDLRIINRPVDSYLEAAAIIRRSTETKAPVPLMTNIKGYPGCSIVGGLAALSSNPEYPLSRVAMSLGLSTTASAQSIVQYLIDGLKKTPYLPVEIDSNSAPCKQNILRGEDASLAHFPIPQVHQHDGNRYVNTWGVFIVESPDGQWCNWSIQRVQYLNDRQMIALVFPSQHISDIWEEWVKIGKPMPYALVQGCEPIVPYIAGLPLLERNVNEAEYIGALYGKGIEVVKCETHDLRVPASSEVVIEGYFAITREGVEGPFGEFAGYTDNEPSLQPILSITAISWQDDPIWPVVAEGKPVDEYHTCTGIGDAAAIQNVLLTANLPVSFVWVPLYSACHLMIVSINRHWRQTHPDLTSEQLTKKVGDVIHQTRMSIKLPKIVVLDDDVDPADTESLLWALATRIHPEFKRYFYESNIFPWLNCYSEEERHNRKGKRVIIDALLPENVGTISSFDYAYPDDIKQRVLMHWETDFSHD
B10: I283T-P284D-N287P-S322T-N388M-E421V-R422F-C430N-L432F-L434W-S436N-H461T-dG462 (protein)
chain: MFLKSLREQINLLKRQGDLRIINRPVDSYLEAAAIIRRSTETKAPVPLMTNIKGYPGCSIVGGLAALSSNPEYPLSRVAMSLGLSTTASAQSIVQYLIDGLKKTPYLPVEIDSNSAPCKQNILRGEDASLAHFPIPQVHQHDGNRYVNTWGVFIVESPDGQWCNWSIQRVQYLNDRQMIALVFPSQHISDIWEEWVKIGKPMPYALVQGCEPIVPYIAGLPLLERNVNEAEYIGALYGKGIEVVKCETHDLRVPASSEVVIEGYFAITREGVEGPFGEFAGYTDNEPSLQPILSITAISWQDDPIWPVVAEGKPVDEYHTCTGIGDAAAIQNVLLTANLPVSFVWVPLYSACHLMIVSINRHWRQTHPDLTSEQLTKKVGDVIHQTRMSIKLPKIVVLDDDVDPADTESLLWALATRIHPVFKRYFYESNIFPWLNCYSEEERHNRKGKRVIIDALLPENTGAISSFDYAYPDDIKQRVLMHWETDFSHD

In the assay the test system is 3-methylcrotonic acid. It is filed as biochemical, Yersinia frederiksenii. More on the design: key: “+” representing a low increase in activity; “++++” representing a high increase in activity.
B1: the “Activity relative to WT” value is listed as “++++”. In the case of B2 it was “++++”; in that of B3, “+”.

Turning to B4, the “Activity relative to WT” value was “++++”. The same measure for B5: “++++”; for B6: “++++”.

As to B7, the “Activity relative to WT” value is “++++”. The same measure for B8: “++++”; for B9: “++++”; for B10: “++++”.
